What is called EC50 is the midpoint of the concentration-response curve. A word on the Kd: it is the constant that tells how readily two partners part at equilibrium.

Here are results for 16 molecules from patent publication US20130078237A1 (Amgen, published 2013).

T1: human CD27L on the surface of cells (human, UniProt P32970 1-193)
T1 sequence: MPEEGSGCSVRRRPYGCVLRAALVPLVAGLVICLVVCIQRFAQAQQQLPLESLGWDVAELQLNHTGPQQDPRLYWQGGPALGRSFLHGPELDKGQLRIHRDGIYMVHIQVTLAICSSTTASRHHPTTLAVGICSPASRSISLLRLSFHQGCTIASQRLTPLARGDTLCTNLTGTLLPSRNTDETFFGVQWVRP

T2: CD27L bound to Maxisorp plates (Homo sapiens (Human), UniProt P32970 39-193, limits assumed)
T2 sequence: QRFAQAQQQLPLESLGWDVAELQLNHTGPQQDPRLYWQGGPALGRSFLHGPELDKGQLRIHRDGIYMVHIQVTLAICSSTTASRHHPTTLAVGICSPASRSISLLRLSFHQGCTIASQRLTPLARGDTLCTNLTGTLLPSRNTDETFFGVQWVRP

T3: cynomolgus monkey CD27L (cynomolgus monkey, UniProt A0A2K5WTU9 39-190)
T3 construct: also called cynomolgus CD27L
T3 sequence: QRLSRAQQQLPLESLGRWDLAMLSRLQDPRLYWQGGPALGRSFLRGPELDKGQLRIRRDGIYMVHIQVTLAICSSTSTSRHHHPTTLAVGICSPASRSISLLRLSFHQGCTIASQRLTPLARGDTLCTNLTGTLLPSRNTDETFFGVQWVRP

T4: Histidine-tagged human soluble CD27L (human, UniProt P32970 39-193)
T4 construct: also called Hu CD27L-his; soluble human CD27L-his; not shown: histidine tag
T4 sequence: T2 sequence

B1: Ab4-MCC-DM1 (antibody, human IgG1, kappa, V domains shown)
VH: QVQLVESGGGVVQPGRSLRLSCAASGFTFSNYGIHWVRQAPGKGLEWVAVIWYDGSNKYYADSVKGRFTISRDNSKNTLYLQMNSLRAEDTAVYYCARDGGYSGYDSGFDYWGQGTLVTVSS
VL: DIVMTQSPLSLPVTPGEPASISCRSSQSLLNSNGYNYLDWYLQKPGQSPQFLIYLGSYRASGVPDRFSGSGSGTDFTLRISRVEAEDVGVYYCIQTLQTPFTFGPGTKVDIKR
modifications: DM1 linked through MCC (SMCC) to lysine residues; 4.5-5.0 DM1 molecules per antibody on average, sites not given
notes: also called Ab4 antibody drug conjugate; conjugated Ab4
B2: Ab4 (antibody, human IgG1, kappa, V domains shown)
VH: B1 VH
VL: B1 VL
notes: Fully human IgG1; also called A4; unconjugated parental Ab4
B3: Ab8-MCC-DM1 (antibody, human IgG1, kappa, V domains shown)
VH: QVQLVESGGGVVQPGRSLRLSCAASGFTFSSYGMHWVRQAPGKGLEWVAVIWYDGSDKYFADSVKGRFTISRDNSKNTLYLQMNSLRAEDTAVYYCARDGIAGARYVYFDYWGQGTLVTVSS
VL: DIQMTQSPSSLSASVGDRVTITCRASQGISNYLAWFQQKPGKAPKSLIYAASSLQGGVPSKFSGSGSGTDFTLTISSLQPEDFATYYCQQYYNYPFTFGPGTTVDIKR
notes: also called Ab8 antibody drug conjugate; conjugated Ab8
B4: Ab8 (antibody, human IgG1, kappa, V domains shown)
VH: B3 VH
VL: B3 VL
notes: also called A8; unconjugated Ab8
B5: Ab4 variant Parent LC + G33S-I34L (antibody, V domains shown)
VH: B1 VH with G33S, I34L
VL: DIVMTQSPLSLPVTPGEPASISCRSSQSLLNSNGYNYLDWYLQKPGQSPQFLIYLGSYRASGVPDRFSGSGSGTDFTLRISRVEAEDVGVYYCIQTLQTPFTFGPGTKVDIK
notes: Rest as Ab4 (IgG1)
B6: Ab4 variant Parent LC + S103G-G104S (antibody, V domains shown)
VH: B1 VH with S103G, G104S
VL: B5 VL
notes: Rest as Ab4 (IgG1)
B7: Ab4 variant Q95N-T96S + S103G-G104S (antibody, V domains shown)
VH: B1 VH with S103G, G104S
VL: B5 VL with Q95N, T96S
notes: Rest as Ab4 (IgG1)
B8: Ab4 variant L55I-Y58F + G33S-I34L (antibody, V domains shown)
VH: B1 VH with G33S, I34L
VL: B5 VL with L55I, Y58F
notes: Rest as Ab4 (IgG1)
B9: Ab4 variant R24K-S26G + G33S-I34L (antibody, V domains shown)
VH: B1 VH with G33S, I34L
VL: B5 VL with R24K, S26G
notes: Rest as Ab4 (IgG1)
B10: Ab4 variant Q95N-T96S + G33S-I34L (antibody, V domains shown)
VH: B1 VH with G33S, I34L
VL: B5 VL with Q95N, T96S
notes: Rest as Ab4 (IgG1)
B11: Ab7 (antibody, human IgG1, lambda, V domains shown)
VH: QVQLVESGGGVVQPGRSLRLSCAASGFTFSTYGMHWVRQAPGKGLEWVAVIWYDGSNKYYGDSVKGRFTISRDNSKNTLYLQMNSLRAEDTAVYYCARDNSHYYYGMDVWGQGTTVTVSS
VL: QSVLTQPPSVSGAPGQRVTISCTGSSSNIGAGYDVNWYQQFPGTAPKLLIYVNNNRPSGVPDRFSGSTSGTSASLAITGLQAEDEADYYCQSYDTSLSASVFGGGTRLTVLG
notes: Fully human IgG1 from XenoMouse hybridoma
B12: Ab5 (antibody, human IgG1, kappa, V domains shown)
VH: QVQLVQSGAEVKKPGASVKVSCKASGYTFTSYDINWVRQATGQGLEWMGWMNPNSGNTGYAQKFQGRVTMTRNTSISTAYMELSSLRSEDTAVYYCARGYDFWSGYYYYYYGMDVWGQGTTVTVSS
VL: EIVLTQSPGTLSLSPGERATLSCRASQSVSSSYLAWYQQRPGQAPRLLIYGASSRATGIPDRFSGSGSGTDFTLTISSLEPEDFAVYYCLQSGSSVPLTFGGGTKVEIKR
notes: as for B11
B13: Ab6 (antibody, human IgG1, lambda, V domains shown)
VH: QVQLVQSGAEVKKPGASVKVSCKASGYTFTSYGISWVRQAPGQGLEWMGWISAYNGYTHYAQKLQGRVTMTTDTSTSTAYMELRSLRSDDTAVYYCARDYGGNDYYGMDVWGQGTTVTVSS
VL: QSVLTQPPSASGTPGQRVTISCSGSSSNIGINYVYWYQQLPGTAPKLLIYRSDQRPSGVPDRFSGSKSGTSASLALSGLRSEDEADYYCAAWDDSLSGVVFGGGTKLTVLG
notes: as for B11
B14: Ab3 (antibody, IgG1, V domains shown)
VH: EVQLLESGGGLVQPGGSLRLSCAASGFTFSSYAMSWVRQAPGKGLEWVSVISDSGGTTDYADSVKGRFTISRDNSKNTLYLQMNSLRAEDTAVYYCARHDYSNRYYFDYWGQGTLVTVSS
VL: EIVLTQSPGTLSLSPGERATLSCRASQSFSSNYLAWYQQKPGQAPRLFIYGASSRATGIPDRFSGSGSGTDFTLTISRLEPEDFAVYFCQQYGISPCSFGQGTKLEIK
notes: Tested as hybridoma supernatant
B15: Ab1 (antibody, human IgG1, kappa, V domains shown)
VH: QMQLQESGPGLVKPSQTLSLTCTVSDGSIISGVYYWSWIRQHPGKGLEWIGYIYYSGSTSYNPSLKSRLTMSVDTSKNQFSLKLSSVTAADTAVYYCARSGYSYALFDYWGQGTLVTVSS
VL: DIQMTQSPSSLSASLGDRVTITCRASQSVDRYFNWYQQKPGKAPKVLIFAASSLQSGVPSRFGGSGSGTDFTLTISSLQPEDFATYYCQQSYSTPWTFGQGTKVEVKR
notes: as for B11
B16: Ab2 (antibody, human IgG1, kappa, V domains shown)
VH: B15 VH with M2V, D26G, G27D, V33G, Y54F, S60D, L69V, M71I, Y109H
VL: DIQMTQSPSSLSASVGDRVTISCRASQFIGRYFNWYQQQPGKAPKVLIYAESSLQSGVPSRFSGSGSGTEFTLTISSLQPEDFARYYCQQSYSTPWTFGQGTKVEIKR
notes: as for B11

Residue numbers refer to the chain shown, from its start. Names and notes keep the numbering of the source.

In the first experiment the target is T1, human CD27L on the surface of cells. Description: cell-based or functional assay.
Turning to B1, the “ADCC against Raji cells, EC50 (calcein release, NK effectors)” value is 6 ng/mL.
Same read-out and setting: under B2 stands 10 ng/mL.

For another experiment the target is unchanged. The experiment is described as follows: cell-based or functional assay. This is another data set of the same source.
Take B3: the “786-0-IC50, Antibody Conc. (nM); cell growth inhibition, CellTiter-Glo, 4 days” value came out at 0.11 nM and the “786-0-IC50, Drug Conc. (nM); cell growth inhibition, CellTiter-Glo, 4 days” value was 0.54 nM.
B1: the “786-0-IC50, Antibody Conc. (nM); cell growth inhibition, CellTiter-Glo, 4 days” value stood at 0.07 nM and the “786-0-IC50, Drug Conc. (nM); cell growth inhibition, CellTiter-Glo, 4 days” value stood at 0.34 nM.

The target is the same in a further experiment. Description: cell-based or functional assay. This is another data set of the same source.
For the molecule B1, the “ADCP, 786-0 EC50 (pM)” value turned out to be 0.087 pM and the “ADCP, Raji EC50 (pM)” value came out at 1.42 pM.
The corresponding values for B2 are 0.008 pM and 0.008 pM.

The next experiment has the same target. The experiment is described as follows: flow cytometry (FACS) on 786-0 cells. (In general: A flow cytometer gives signals particle by particle.)
The molecule B3 came in with an EC50 of 80 pM.
As for B4, the EC50 is 20 pM.
In turn, B1 returned an EC50 of 100 pM.
B2: the EC50 worked out at 100 pM.

The next experiment has the same target. The experiment is described as follows: Gyros, native human CD27L on Raji cells.
B3 gave a Kd of 77 pM.
Same read-out and setting: under B4 stands 78 pM.
On the same count and under the same terms, next, B1: 23 pM; B2: 14 pM.

Another experiment has the same target. Description: flow cytometry on 786-0 cells, reference Ab8.
For the molecule B3, the “fold change of binding EC50 against Ab8” value came out at 4 fold.

The next experiment concerns the target T2, CD27L bound to Maxisorp plates. The experiment is described as follows: ELISA on plate-bound CD27L; abolished = no curve could be generated or max signal less than 5%. For orientation: ELISA stands for enzyme-linked immunosorbent assay.
Procedure: CD27L was bound to Maxisorp plates at room temperature for >2 hours, shaking with lug/mL in 100 uL. The plates were then blocked with 250 uL 10% Non-fat dry milk in PBS+0.05% Tween 20 for 2 hours. After a 4×300 uL PBS+0.05% Tween20 (PBST) wash the modified Ab and purified parental control titrations ranging from 0.045 to 100 ng/mL were applied to the plates and incubated for 1 hour. A horseradish peroxidase conjugated αhuFc detection antibody (Jackson) diluted 1:7000 was applied to the plates after another PBST wash, and incubated for 1 hour. A final wash was performed and TMB substrate was incubated for 10 minutes and stopped with phosphoric acid. An OD reading at 450 nm was taken and plotted vs. concentration. These curves were then analyzed with a 3 parameter non linear curve fit and the EC₅₀ and Max calculated signal were compared to the purified control. Binding was determined to be similar to parental if the EC₅₀ was within 2 fold and the Max signal was greater than 50%. The binding was reduced if the EC₅₀ increased greater than 2 fold and/or the max signal was less than 50%. The binding was abolished if no curve could be generated or the max signal was less than 5%.
On to B5, for which the binding result is “no binding”.
On the same count and under the same terms, under B6 stands “no binding”.
Turning to B7, the binding result was “no binding”.
For the molecule B8, the binding result is “no binding”.
Same read-out and setting: under B9 stands “no binding”; under B10, “no binding”.

The next experiment addresses T3, cynomolgus monkey CD27L. The experiment is described as follows: binding to cynomolgus CD27L (column 'Cyno Avidity EC50 nM'); method not stated for the figure.
B11 displayed a concentration for a half-maximal effect (EC50) of 430 pM.
Turning to B4, the EC50 came to 340 pM.
Same read-out and setting: next, B12: 1400 pM; B13: 870 pM.
The same measure, in the same setting: under B2 stands 480 pM.

Another experiment addresses T1, human CD27L on the surface of cells. Description: binding to cells with native human CD27L (column 'Native cell Avidity EC50 nM'); cell line and method not stated for the figure.
Molecule B11 showed an EC50 of 180 pM.
In turn, B14 yielded an EC50 of 4180 pM.
Still for that read-out and setting: under B4 stands 90 pM; under B15, 320 pM; under B16, 240 pM.
As for B12, a half-maximal effect (EC50) was put at 660 pM.
Still for that read-out and setting: under B13 stands 870 pM; under B2, 250 pM.

The target of the next experiment is T4, Histidine-tagged human soluble CD27L. Description: BIACORE 3000, antibody captured by goat anti-human IgG on a CM5 chip, Hu CD27L-his as analyte (column 'Affinity Hu Biacore KD nM'). In general terms: In SPR one partner is held on a chip, and binding of the other changes the refractive index at the surface.
Procedure: Affinity for recombinant soluble human CD27L was determined using a CM5 chip on a BIACORE 3000. Goat anti-human IgG antibody was used to capture the test antibody. Binding and dissociation of Histidine-tagged human soluble CD27L was measured to determine Kₐ, Kₐ, and KD.
Molecule B11 registered a Kd of 710 pM.
On the same count and under the same terms, under B14 stands 4350 pM.
With B4, the equilibrium dissociation constant (Kd) is 10800 pM.
Take B15: the Kd came out at 620 pM.
The molecule B16 displayed a Kd of 590 pM.
On the same count and under the same terms, under B12 stands 10400 pM.
The same measure, in the same setting: under B13 stands 6060 pM.
Regarding B2, the Kd worked out at 3050 pM.
